Source: patent US20100210478A1, “MAKE AND USE OF SURFACE MOLECULES OF VARIED DENSITIES” (priority 2006, published 2010)

Key:
peptide YVPM = test system: T1, peptide YVPM
T1 sequence: YVPM

peptide YEEI = test system: T2, peptide YEEI
T2 sequence: YEEI

peptide YEE = test system: T3, peptide YEE
T3 sequence: YEE

peptide YEEIP = test system: T4, peptide YEEIP
T4 sequence: YEEIP

Src kinase, p60c-src = target: T5, Src kinase, p60c-src (Homo sapiens, UniProt P12931); assay: protein kinase reaction on peptide chip, phosphorylation detected by cy3-Pro-Q staining; format: biochemical; conditions: pH7.5, 0.07 mM ATP, 25° C. for 30 min
T5 construct: purchased Invitrogen
Description: FIG. 8 is a fluorescence image of a protein kinase reaction on pY-phosphopeptide chip. The experiment used Src kinase, p60c-src (Invitrogen). The chip included 23 known kinase substrates and their sequence variants, which vary in length and composition, a number of position and negative control sequences, and a few artificial peptide sequences. For each substrate peptide, at the phosphorylation position, Tyr (Y) in YEEI, for instance, three sequences are present, which are YEEI, pYEEI and AEEI. pY-containing sequences are directly synthesized which are reference sequences for the Y-containing sequences (as the substrate for kinase reactions) There are also background sites which contain no peptides. 8-22 redundancies were present. The peptide sequences shown in the image are YVPM (column 1) and the YEEIP (column 2) related sequences in double replicates. These sequences are given on right of the image. […] Kinase reaction conditions and phosphorylation detection were: 10× enzyme storage solution (0.5 mg/ml). 50 ul reaction buffer, pH7.5 (50 HEPES, 0.1 mM EDTA, and 0.01% Brij 35, 0.1 mg/ml BSA, 0.1% beta-mercaptoethanol, 0.07 mM ATP, 10 mM MgCl2), 25° C. for 30 min. The array was stained by filling the array with 200 ul cy3-Pro-Q solution (phosphate staining reagent), standing at room temperature for 20 min. The chip was then washed with 2 ml destaining buffer, pH 4.0 (50 mM […], 20% acetonitrile) as recommended by the vendor. The image was obtained from a regular microarray scanner (Axon GenPix 4000B) and shown using inverted intensities after background subtraction.
The signal intensities were analyzed using the following equation:
Relative phosphorylation efficiency: fP =(IY−IA)/(IpY−IA)
For a peptide, I is the signal intensity, IY is for Y-containing sequence which undergoes phosphorylation by kinase,IpY is for the synthetic phosphopeptide, IA is for the sequence containing Y→A substitution. By using the positive controls (pY-sequence) and negative controls (A-sequence or other non-phosphorylation amino acids) to derive relative phosphorylation efficiency, fp as fraction or percentage, the kinase reaction results were analyzed quantitatively. The method takes the advantage of addressable peptide array for reducing false positive readout and improves reliability of the data analysis.

Substance | phosphorylation by Src kinase (substrate reactivity) (Src kinase, p60c-src) | also measured
Src kinase, p60c-src (Invitrogen) |  | phosphorylation on peptide chip, cy3-Pro-Q phosphate staining (peptide YVPM): YVPM has the lowest reactivity; phosphorylation on peptide chip, cy3-Pro-Q phosphate staining (peptide YEEI): YEE and YEEI are phosphorylated by the Sic kinase used; phosphorylation on peptide chip, cy3-Pro-Q phosphate staining (peptide YEE): YEE and YEEI are phosphorylated by the Sic kinase used; phosphorylation on peptide chip, cy3-Pro-Q phosphate staining (peptide YEEIP): YEEIP is a substrate of lower reactivity
YEE | phosphorylated | 
YEEI | phosphorylated | 
YEEIP | substrate of lower reactivity | 
YVPM | lowest reactivity | 
